Target: Jak2 (UniProt O60674)
Experiment: phosphorylation enrichment, bacterial display (enrichment ratio); higher = better substrate or ligand; peptides without Tyr show the background
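Note: 11-residue human phosphosite peptides and single-mutation variants displayed on the E. coli surface, counted by deep sequencing, each peptide's frequency after selection divided by its frequency in the unselected input library; frequency after pTyr selection over input frequency; kinase dosed for 20-30% of maximal phosphorylation in three min.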

Sequence of Jak2 (O60674 whole entry, looked up): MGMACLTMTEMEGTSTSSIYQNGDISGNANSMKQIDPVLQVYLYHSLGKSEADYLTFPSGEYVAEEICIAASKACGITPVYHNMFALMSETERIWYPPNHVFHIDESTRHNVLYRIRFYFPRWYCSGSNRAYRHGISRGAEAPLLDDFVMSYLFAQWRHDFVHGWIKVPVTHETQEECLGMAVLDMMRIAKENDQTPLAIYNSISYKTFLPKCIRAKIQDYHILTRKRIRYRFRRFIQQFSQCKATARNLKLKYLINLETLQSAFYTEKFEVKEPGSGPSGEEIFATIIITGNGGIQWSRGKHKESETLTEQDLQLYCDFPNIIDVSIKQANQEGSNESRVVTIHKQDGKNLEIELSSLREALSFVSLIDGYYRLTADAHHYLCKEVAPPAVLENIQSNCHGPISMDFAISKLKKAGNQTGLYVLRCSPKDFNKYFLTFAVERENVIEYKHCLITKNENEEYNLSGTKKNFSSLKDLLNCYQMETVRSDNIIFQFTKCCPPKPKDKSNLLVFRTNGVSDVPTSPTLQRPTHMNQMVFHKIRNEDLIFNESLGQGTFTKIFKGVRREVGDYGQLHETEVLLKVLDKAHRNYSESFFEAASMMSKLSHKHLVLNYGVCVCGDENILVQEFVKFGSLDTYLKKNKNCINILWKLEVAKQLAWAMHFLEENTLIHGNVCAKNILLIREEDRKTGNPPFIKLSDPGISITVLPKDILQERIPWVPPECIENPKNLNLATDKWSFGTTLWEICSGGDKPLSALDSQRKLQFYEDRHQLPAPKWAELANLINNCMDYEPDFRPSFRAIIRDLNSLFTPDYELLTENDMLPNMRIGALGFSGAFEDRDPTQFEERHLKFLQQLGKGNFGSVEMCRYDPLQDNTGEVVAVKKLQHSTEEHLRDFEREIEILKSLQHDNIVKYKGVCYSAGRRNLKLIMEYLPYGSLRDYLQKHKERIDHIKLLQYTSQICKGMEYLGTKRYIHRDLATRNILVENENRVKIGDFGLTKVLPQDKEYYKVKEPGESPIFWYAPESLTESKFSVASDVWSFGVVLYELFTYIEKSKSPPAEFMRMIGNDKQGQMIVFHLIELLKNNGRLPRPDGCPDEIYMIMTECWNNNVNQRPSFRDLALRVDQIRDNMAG

| Sequence | phosphorylation enrichment |
| --- | --- |
| FRTPGYREVVI [TNS2_Y673_A670T_YF] | 0.615 |
| ISNATYKQIGL [FLT1_Y199_E201Q] | 0.513 |
| GRLFAYPDTHC [CAT_Y358_R363C] | 0.785 |
| SLGKGYSDGGC [MC4R_Y35] | 0.719 |
| EEGNPYYSGAR [MCCC2_Y520_S523G] | 0.719 |
| GFPVRYTDVSN [DNMT3B_Y815_H814R] | 0.712 |
| EIVFVYVKKRS [DNAI2_Y7_YF] | 1.34 |
| QPSPSYDSSGG [TCF12_Y70_R74G] | 0.579 |
| WSRAMYPDLGP [STARD8_Y330] | 0.579 |
| IFHENYNAGTF [CFI_Y421_YF] | 0.615 |
| DMGAQYAAASR [ARID1B_Y483_P488R] | 0.49 |
| FQGRRYDCDCD [CRYGS_Y21] | 0.751 |
| HNVPIYEGFGL [ACTA1_Y168_A172G_YF] | 0.575 |
| PSTYRYERGSR [INPPL1_Y663_P659S] | 0.475 |
| NAGAFYALSTL [FLVCR2_Y325] | 0.751 |
| IEPVIYVVQRR [ANOS1_Y217] | 1.1 |
| PSSNLYYRWLT [CNGA3_Y168] | 7.82 |

| Sequence | phosphorylation enrichment |
| --- | --- |
| ETELPYQELQG [TYROBP_Y91_S89L] | 1.02 |
| LRSKQYLRNPP [SHC1_Y315_F312S] | 0.355 |
| KSFDMYSGDVM [FAM3D_Y122_A118S] | 0.698 |
| ADRNHYRRFPR [YBX1_Y145_YF] | 0.654 |
| QQMGTYGVRAA [ICAM2_Y260_R256Q] | 0.313 |
| DDYDLYGGEKF [PTPN11_Y66_Y62D] | 0.963 |
| MTRDIYETDFF [INSR_Y1185_YF] | 1.23 |
| KLIETCFSKNF [PLP1_Y50_Y50C_YF] | 1.06 |
| RIFDFYSARKT [STOX1_Y858_A863T_YF] | 0.417 |
| FRDALYKFIVD [PHEX_Y250_M253I_YF] | 0.919 |
| GDGRFYMKEAI [PGM1_Y66] | 1.03 |
| YKEDPYLVVNP [MCM6_Y810_E806K] | 1.03 |
| PSPMPYACCQM [FOXL2_Y215_S217C] | 0.516 |
| IPTPAYQSLPA [PDCD6IP_Y727_S730L] | 0.616 |
| IFRASYFRRGD [LTK_Y676_YF] | 0.668 |
| DSYWSYCNAVA [SLC20A2_Y436_S434W] | 1.27 |

System: c-Src
Experiment: as above

| Sequence | phosphorylation enrichment |
| --- | --- |
| FRTPGYREVVI [TNS2_Y673_A670T_YF] | 0.504 |
| ISNATYKQIGL [FLT1_Y199_E201Q] | 0.399 |
| GRLFAYPDTHC [CAT_Y358_R363C] | 0.403 |
| SLGKGYSDGGC [MC4R_Y35] | 0.387 |
| EEGNPYYSGAR [MCCC2_Y520_S523G] | 1.83 |
| GFPVRYTDVSN [DNMT3B_Y815_H814R] | 0.448 |
| EIVFVYVKKRS [DNAI2_Y7_YF] | 0.386 |
| QPSPSYDSSGG [TCF12_Y70_R74G] | 0.478 |
| WSRAMYPDLGP [STARD8_Y330] | 0.39 |
| IFHENYNAGTF [CFI_Y421_YF] | 0.456 |
| DMGAQYAAASR [ARID1B_Y483_P488R] | 0.365 |
| FQGRRYDCDCD [CRYGS_Y21] | 0.471 |
| HNVPIYEGFGL [ACTA1_Y168_A172G_YF] | 8.62 |
| PSTYRYERGSR [INPPL1_Y663_P659S] | 0.546 |
| NAGAFYALSTL [FLVCR2_Y325] | 1.23 |
| IEPVIYVVQRR [ANOS1_Y217] | 0.356 |
| PSSNLYYRWLT [CNGA3_Y168] | 4.28 |

| Sequence | phosphorylation enrichment |
| --- | --- |
| ETELPYQELQG [TYROBP_Y91_S89L] | 2.5 |
| LRSKQYLRNPP [SHC1_Y315_F312S] | 0.399 |
| KSFDMYSGDVM [FAM3D_Y122_A118S] | 1.1 |
| ADRNHYRRFPR [YBX1_Y145_YF] | 0.689 |
| QQMGTYGVRAA [ICAM2_Y260_R256Q] | 2.48 |
| DDYDLYGGEKF [PTPN11_Y66_Y62D] | 2.07 |
| MTRDIYETDFF [INSR_Y1185_YF] | 2.06 |
| KLIETCFSKNF [PLP1_Y50_Y50C_YF] | 0.476 |
| RIFDFYSARKT [STOX1_Y858_A863T_YF] | 0.624 |
| FRDALYKFIVD [PHEX_Y250_M253I_YF] | 0.546 |
| GDGRFYMKEAI [PGM1_Y66] | 0.38 |
| YKEDPYLVVNP [MCM6_Y810_E806K] | 1.74 |
| PSPMPYACCQM [FOXL2_Y215_S217C] | 1.02 |
| IPTPAYQSLPA [PDCD6IP_Y727_S730L] | 0.416 |
| IFRASYFRRGD [LTK_Y676_YF] | 0.582 |
| DSYWSYCNAVA [SLC20A2_Y436_S434W] | 4.44 |

Target: Fyn (UniProt P06241)
Experiment: as above

Sequence of Fyn (P06241 whole entry, looked up): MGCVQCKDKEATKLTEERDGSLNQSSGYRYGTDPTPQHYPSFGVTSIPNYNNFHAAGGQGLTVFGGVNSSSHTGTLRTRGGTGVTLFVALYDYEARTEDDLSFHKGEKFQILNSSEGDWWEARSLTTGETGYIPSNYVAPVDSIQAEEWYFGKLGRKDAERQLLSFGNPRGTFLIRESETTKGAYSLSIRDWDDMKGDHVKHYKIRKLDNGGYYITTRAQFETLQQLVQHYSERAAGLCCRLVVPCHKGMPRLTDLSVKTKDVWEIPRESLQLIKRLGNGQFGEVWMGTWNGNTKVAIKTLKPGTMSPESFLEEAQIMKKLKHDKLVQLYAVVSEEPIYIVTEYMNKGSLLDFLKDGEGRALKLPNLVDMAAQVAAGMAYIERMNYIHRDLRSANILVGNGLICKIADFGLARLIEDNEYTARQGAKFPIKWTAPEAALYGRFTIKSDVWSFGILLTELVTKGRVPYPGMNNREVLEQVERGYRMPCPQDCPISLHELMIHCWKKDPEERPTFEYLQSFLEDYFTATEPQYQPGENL

| Sequence | phosphorylation enrichment |
| --- | --- |
| FRTPGYREVVI [TNS2_Y673_A670T_YF] | 0.411 |
| ISNATYKQIGL [FLT1_Y199_E201Q] | 0.434 |
| GRLFAYPDTHC [CAT_Y358_R363C] | 0.466 |
| SLGKGYSDGGC [MC4R_Y35] | 0.47 |
| EEGNPYYSGAR [MCCC2_Y520_S523G] | 0.959 |
| GFPVRYTDVSN [DNMT3B_Y815_H814R] | 0.423 |
| EIVFVYVKKRS [DNAI2_Y7_YF] | 0.341 |
| QPSPSYDSSGG [TCF12_Y70_R74G] | 0.667 |
| WSRAMYPDLGP [STARD8_Y330] | 0.463 |
| IFHENYNAGTF [CFI_Y421_YF] | 0.461 |
| DMGAQYAAASR [ARID1B_Y483_P488R] | 0.37 |
| FQGRRYDCDCD [CRYGS_Y21] | 0.428 |
| HNVPIYEGFGL [ACTA1_Y168_A172G_YF] | 14.9 |
| PSTYRYERGSR [INPPL1_Y663_P659S] | 0.721 |
| NAGAFYALSTL [FLVCR2_Y325] | 0.567 |
| IEPVIYVVQRR [ANOS1_Y217] | 0.304 |
| PSSNLYYRWLT [CNGA3_Y168] | 3.84 |

| Sequence | phosphorylation enrichment |
| --- | --- |
| ETELPYQELQG [TYROBP_Y91_S89L] | 0.737 |
| LRSKQYLRNPP [SHC1_Y315_F312S] | 0.452 |
| KSFDMYSGDVM [FAM3D_Y122_A118S] | 1.06 |
| ADRNHYRRFPR [YBX1_Y145_YF] | 0.519 |
| QQMGTYGVRAA [ICAM2_Y260_R256Q] | 2.06 |
| DDYDLYGGEKF [PTPN11_Y66_Y62D] | 1.7 |
| MTRDIYETDFF [INSR_Y1185_YF] | 1.93 |
| KLIETCFSKNF [PLP1_Y50_Y50C_YF] | 0.413 |
| RIFDFYSARKT [STOX1_Y858_A863T_YF] | 0.485 |
| FRDALYKFIVD [PHEX_Y250_M253I_YF] | 0.508 |
| GDGRFYMKEAI [PGM1_Y66] | 0.45 |
| YKEDPYLVVNP [MCM6_Y810_E806K] | 1.04 |
| PSPMPYACCQM [FOXL2_Y215_S217C] | 0.71 |
| IPTPAYQSLPA [PDCD6IP_Y727_S730L] | 0.467 |
| IFRASYFRRGD [LTK_Y676_YF] | 0.512 |
| DSYWSYCNAVA [SLC20A2_Y436_S434W] | 5.46 |

System: AncSZ
Experiment: as above

| Sequence | phosphorylation enrichment |
| --- | --- |
| FRTPGYREVVI [TNS2_Y673_A670T_YF] | 0.703 |
| ISNATYKQIGL [FLT1_Y199_E201Q] | 0.667 |
| GRLFAYPDTHC [CAT_Y358_R363C] | 0.784 |
| SLGKGYSDGGC [MC4R_Y35] | 0.636 |
| EEGNPYYSGAR [MCCC2_Y520_S523G] | 0.898 |
| GFPVRYTDVSN [DNMT3B_Y815_H814R] | 0.606 |
| EIVFVYVKKRS [DNAI2_Y7_YF] | 0.995 |
| QPSPSYDSSGG [TCF12_Y70_R74G] | 0.668 |
| WSRAMYPDLGP [STARD8_Y330] | 0.745 |
| IFHENYNAGTF [CFI_Y421_YF] | 0.612 |
| DMGAQYAAASR [ARID1B_Y483_P488R] | 0.575 |
| FQGRRYDCDCD [CRYGS_Y21] | 0.875 |
| HNVPIYEGFGL [ACTA1_Y168_A172G_YF] | 1.35 |
| PSTYRYERGSR [INPPL1_Y663_P659S] | 0.718 |
| NAGAFYALSTL [FLVCR2_Y325] | 0.784 |
| IEPVIYVVQRR [ANOS1_Y217] | 1.37 |
| PSSNLYYRWLT [CNGA3_Y168] | 1.89 |

| Sequence | phosphorylation enrichment |
| --- | --- |
| ETELPYQELQG [TYROBP_Y91_S89L] | 1.58 |
| LRSKQYLRNPP [SHC1_Y315_F312S] | 0.376 |
| KSFDMYSGDVM [FAM3D_Y122_A118S] | 0.998 |
| ADRNHYRRFPR [YBX1_Y145_YF] | 0.8 |
| QQMGTYGVRAA [ICAM2_Y260_R256Q] | 0.33 |
| DDYDLYGGEKF [PTPN11_Y66_Y62D] | 1.51 |
| MTRDIYETDFF [INSR_Y1185_YF] | 1.13 |
| KLIETCFSKNF [PLP1_Y50_Y50C_YF] | 1.14 |
| RIFDFYSARKT [STOX1_Y858_A863T_YF] | 0.715 |
| FRDALYKFIVD [PHEX_Y250_M253I_YF] | 1.02 |
| GDGRFYMKEAI [PGM1_Y66] | 0.875 |
| YKEDPYLVVNP [MCM6_Y810_E806K] | 1.19 |
| PSPMPYACCQM [FOXL2_Y215_S217C] | 0.703 |
| IPTPAYQSLPA [PDCD6IP_Y727_S730L] | 0.652 |
| IFRASYFRRGD [LTK_Y676_YF] | 0.923 |
| DSYWSYCNAVA [SLC20A2_Y436_S434W] | 1.43 |

Reference: the supplement of paper PMC10065799, “High-throughput profiling of sequence recognition by tyrosine kinases and SH2 domains using bacterial peptide display” (eLife, 2023)
